The experiment concerns the target endogenous mTOR (mechanistic target of rapamycin) (mouse (endogenous in brain and MEFs)) (UniProt Q9JLN9). Kind of experiment: co-IP; anti-mTOR on Protein G beads; whole brain lysates of wild type or Thorase KO mice in buffer A, 1% Triton X-100, with or without 2 mM ADP, ATP or ATPγS, 4 °C; immunoblot. For orientation: Immunoblotting shows a protein as a band on a membrane.

The substance “endogenous S6K (from UniProt Q8BSK8 1-525) (enzyme)” registered a percent dissociated from mTOR (Thorase KO brain) of 20% and a percent dissociated from mTOR (wild type brain) of 80%.
